# Literature values as cited in paper PMC9736027.
# Biological target: Nrf2 (Homo sapiens) (UniProt Q16236)
# UniProt Q16236, sequence (Q16236 whole entry): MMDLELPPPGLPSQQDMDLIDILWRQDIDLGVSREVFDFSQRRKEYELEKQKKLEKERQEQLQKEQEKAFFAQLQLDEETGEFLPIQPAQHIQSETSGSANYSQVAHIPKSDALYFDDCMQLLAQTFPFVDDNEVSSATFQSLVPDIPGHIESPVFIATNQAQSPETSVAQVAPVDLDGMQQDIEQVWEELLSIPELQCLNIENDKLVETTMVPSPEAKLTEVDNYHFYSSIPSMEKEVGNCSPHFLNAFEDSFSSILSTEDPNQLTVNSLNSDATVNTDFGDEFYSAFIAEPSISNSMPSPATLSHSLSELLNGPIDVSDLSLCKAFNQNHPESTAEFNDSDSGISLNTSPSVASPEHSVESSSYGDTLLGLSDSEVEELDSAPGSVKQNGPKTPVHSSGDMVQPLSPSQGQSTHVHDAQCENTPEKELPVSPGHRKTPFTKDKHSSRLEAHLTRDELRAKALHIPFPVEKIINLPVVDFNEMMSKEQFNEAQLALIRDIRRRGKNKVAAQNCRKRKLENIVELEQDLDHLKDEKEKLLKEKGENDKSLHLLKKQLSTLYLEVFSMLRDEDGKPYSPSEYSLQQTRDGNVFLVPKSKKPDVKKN
substance,measurement,value
Keap1 (from UniProt Q14145),Kd,20 nM
